Sequences and labels used below:
B1: anti-ED-A antibody B7 (scFv)
scFv: EVQLVESGGGLVQPGGSLRLSCAASGFTFSHFDMSWVRQAPGKGLEWVSAISGSGGSTYYADSVKGRFTISRDNSKNTLYLQMNSLRAEDTAVYYCAKSTHLYLFDYWGQGTLVTVSSGGGGSGGGGSGGGGSGGGGSEIVLTQSPGTLSLSPGEKATLSCRASQSVSLAFLAWYQQKPGQAPRLLIYGASSRATGIPDRFSGSGSGTDFTLTISRLEPEDFAVYYCQQMRGRPPTFGQGTKVEIKAAAEQKLISEEDLNGAA
notes: scFv; Supernatant in BIAcore analysis 1, purified monomeric fraction in BIAcore analysis 2
B2: anti-ED-A antibody D5 (scFv)
scFv: B1 scFv with H31V, F32M, D33K, L169N
notes: as for B1
B3: anti-ED-A antibody F8 (scFv)
scFv: B1 scFv with H31L, D33T, L169M, A170P
notes: scFv format, not the F8 diabody; Supernatant in BIAcore analysis 1, purified monomeric fraction in BIAcore analysis 2; also called anti-ED-A scFv F8
B4: anti-ED-A antibody B2 (scFv)
scFv: B1 scFv with H31A, F32A, D33K, L169V
notes: as for B1
B5: anti-ED-A antibody C5 (scFv)
scFv: B1 scFv with H31P, F32I, D33T, A170H
notes: as for B1
B6: anti-ED-A antibody C8 (scFv)
scFv: B1 scFv with H31L, F32Q, D33T, A170P
notes: as for B1
B7: anti-ED-A antibody G9 (scFv)
scFv: B1 scFv with F32M, D33Q, L169T
notes: as for B1
B8: anti-ED-A antibody E5 (scFv)
scFv: B1 scFv with H31T, F32G, D33S, F171H
notes: scFv, tested as bacterial supernatant in BIAcore analysis 1
B9: anti-ED-A antibody E8 (scFv)
scFv: B1 scFv with H31D, F32M, D33H, L169S, A170S
notes: as for B8
B10: anti-ED-A antibody H1 (scFv)
scFv: B1 scFv with H31P, F32R, D33R, L169S, F171W
notes: scFv, tested as bacterial supernatant in BIAcore analysis 1; Tags from the pHEN1 vector are not described
B11: anti-ED-A antibody F1 (scFv)
scFv: B1 scFv with H31Q, F32A, D33R, L169A, A170P
notes: scFv, tested as bacterial supernatant (E. coli TG-1) in BIAcore analysis 1

Numbering of substitutions follows the chain as printed.

From US20160083461A1 (PHILOGEN S P A, published 2016) come the findings set out here.

The target in the first assay is T1, antigen (11A12) containing the ED-A domain of human fibronectin (human, UniProt P02751 1629-1905).
T1 construct: Immobilised on a CM5 chip by amine coupling
T1 sequence (P02751 other isoform, or with tags, fused parts or gaps limits assumed): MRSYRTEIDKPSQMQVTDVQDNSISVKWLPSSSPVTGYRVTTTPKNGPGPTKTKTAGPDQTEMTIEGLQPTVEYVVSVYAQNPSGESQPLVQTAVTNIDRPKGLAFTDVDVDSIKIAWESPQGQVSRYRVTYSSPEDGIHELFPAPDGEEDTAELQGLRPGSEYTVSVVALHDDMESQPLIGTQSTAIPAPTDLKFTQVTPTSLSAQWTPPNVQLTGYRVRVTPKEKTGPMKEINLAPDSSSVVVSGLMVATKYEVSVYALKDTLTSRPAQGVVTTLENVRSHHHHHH
Put plainly: SPR (BIAcore), monomeric scFv over 11A12 immobilised on CM5 chip. How it is done:
The kₒₙ, koff and KD of the parent anti-ED-A antibody and anti-ED-A antibodies B2, C5, D5, C8, F8, B7 and G9 were evaluated using Surface Plasmon Resonance. The chip was equilibrated over night with the same buffer used during the assay at a buffer flow rate of 5 μl/min. The whole coating procedure was performed at this flow rate. The antigen 11A12 was diluted 1:25 with acetate buffer pH 4.00 (provided by BIACORE) to a final concentration of 20 μg/ml. The NHS and EDC were then mixed and 50 μl injected to activate the COOH groups on the CM5 chip. This was followed by injection of 40 μl of the antigen (this lasts about 40″). Then 30 μl of Ethanolammine were injected in order to block the reactivity of eventual free COOH.
Each sample was assayed at a flow rate 20 μl/min. 20 μl of undiluted monomeric protein (as it comes out from the gel filtration) was injected. The dissociation time was left to run for about 200″. Then 10 μl of HCl 10 mM was injected to regenerate the chip. The injection of monomeric protein was repeated at different dilutions, i.e. 1:2 dilution (in PBS) followed by regeneration with HCl. This was followed by a third injection of the protein, at a dilution of 1:4 followed again by regeneration with HCl. The kₒₙ, koff and KD values for each anti-ED-A antibody were evaluated using the BIAevaluation software.
On the technique in general: In SPR one partner is held on a chip, and binding of the other changes the refractive index at the surface.
As to B1, the Kd is approximately 16.8 nM, the koff amounted to 0.0045 s⁻¹ and the association rate constant (kon) was determined as 267000 M⁻¹ s⁻¹.
B2: the dissociation constant (Kd) was approximately 17 nM, the koff was 0.0076 s⁻¹ and the on-rate (kon) was determined as 453000 M⁻¹ s⁻¹.
For B3 the same measures were approximately 3.1 nM, 0.0014 s⁻¹ and 465000 M⁻¹ s⁻¹.
In turn, B4 came in with a Kd of approximately 20 nM, a koff of 0.00754 s⁻¹ and an on-rate (kon) of 380000 M⁻¹ s⁻¹.
For B5 the same measures were approximately 30 nM, 0.00923 s⁻¹ and 304000 M⁻¹ s⁻¹.
On the same counts, the results for B6 are approximately 14 nM, 0.0053 s⁻¹ and 380000 M⁻¹ s⁻¹.
On the same counts, the results for B7 are approximately 20.9 nM, 0.00754 s⁻¹ and 360000 M⁻¹ s⁻¹.

In a further assay the target is T1, antigen (11A12) containing the ED-A …. The experiment in a line: SPR (BIAcore analysis 1), bacterial supernatant of scFv over immobilised 11A12; flatter dissociation curve than the parent. Here is the method:
The BIAcore Chip was flushed overnight at a flow rate of 5 μl/min with HBS-EP buffer BIACORE, 0.01 M Hepes pH 7.4, 0.15 M NaCl, 3 mM EDTA, 0.005% surfactant P20 (same buffer used for the assay). The antigen (11A12) was diluted to a concentration of 50 μg/ml in acetate buffer (pH 4.0) and the COOH groups on the chip were activated by injection of 50 μl of a mix of N-Hydroxy Succinimmide (NHS) and ethyl-N-(dimethylaminopropyl)-carbodiimide (EDC). 40 μl of the 11A12 antigen were injected onto the chip and the residual free COOH groups were blocked with 30 μl of ethanolamine. After a 0.22 μm filtration, 20 μl of each individual bacterial supernatant were injected onto the chip and interaction with the antigen was monitored in real time.
The association curves of antibodies H1, C5, D5, E5, C8, F8 and F1 were flatter than that observed for the parent anti-ED-A antibody while the association curve observed for antibodies B2, B7, E8 and G9 was as steep as the association curve observed for the parent anti-ED-A antibody. However, as bacterial supernatants of IFTG-induced E. coli TG-1 cells were used for the BIAcore analysis of antibodies H1, B2, C5, D5, E5, C8, F8, F1, B7, E8 and G9, the concentration of the tested antibody samples was unknown but most probably lower than the concentration of the parent anti-ED-A antibody sample used for comparison. Consequently, the association curve of antibodies H1, B2, C5, D5, E5, C8, F8, F1, B7, E8 and G9 may be artificially low due to the low concentration of antibody in the samples used for the BIAcore analysis.
For the molecule B8, the binding result was “binds”.
Regarding B9, the binding result is reported as “binds”.
Still for that read-out and setting: the result for B10 reads “binds”; that for B11, “binds”.

As a reminder, the Kd is the constant that tells how readily two partners part at equilibrium. The low end stands for higher affinity, the high end for lower affinity. As usually defined, the koff is the first-order rate constant of dissociation. A low value points to slow dissociation. In general, kon refers to a measure of how fast the partners come together. Read a low kon as slow association.
